Patent US20110207152A1

What was measured:
[1] = molecular target: F-actin prepared from rabbit muscle actin (rabbit) (UniProt P68135); test: cell-based or functional assay
[2] = molecular target: native human plasma gelsolin (human) (UniProt P06396); test: sandwich ELISA on human plasma; detection antibody GS2C4 (HRP), capture antibody GN3E9
[3] = molecular target: native human plasma gelsolin (human) (UniProt P06396); test: sandwich ELISA on human plasma; detection antibody GS2C4 (HRP), capture antibody GC1C10
[4] = molecular target: native human plasma gelsolin (human) (UniProt P06396); test: sandwich ELISA on human plasma; detection antibody GS2C4 (HRP), capture antibody GF2D6

Chain of native human plasma gelsolin (P06396 28-782 limits assumed): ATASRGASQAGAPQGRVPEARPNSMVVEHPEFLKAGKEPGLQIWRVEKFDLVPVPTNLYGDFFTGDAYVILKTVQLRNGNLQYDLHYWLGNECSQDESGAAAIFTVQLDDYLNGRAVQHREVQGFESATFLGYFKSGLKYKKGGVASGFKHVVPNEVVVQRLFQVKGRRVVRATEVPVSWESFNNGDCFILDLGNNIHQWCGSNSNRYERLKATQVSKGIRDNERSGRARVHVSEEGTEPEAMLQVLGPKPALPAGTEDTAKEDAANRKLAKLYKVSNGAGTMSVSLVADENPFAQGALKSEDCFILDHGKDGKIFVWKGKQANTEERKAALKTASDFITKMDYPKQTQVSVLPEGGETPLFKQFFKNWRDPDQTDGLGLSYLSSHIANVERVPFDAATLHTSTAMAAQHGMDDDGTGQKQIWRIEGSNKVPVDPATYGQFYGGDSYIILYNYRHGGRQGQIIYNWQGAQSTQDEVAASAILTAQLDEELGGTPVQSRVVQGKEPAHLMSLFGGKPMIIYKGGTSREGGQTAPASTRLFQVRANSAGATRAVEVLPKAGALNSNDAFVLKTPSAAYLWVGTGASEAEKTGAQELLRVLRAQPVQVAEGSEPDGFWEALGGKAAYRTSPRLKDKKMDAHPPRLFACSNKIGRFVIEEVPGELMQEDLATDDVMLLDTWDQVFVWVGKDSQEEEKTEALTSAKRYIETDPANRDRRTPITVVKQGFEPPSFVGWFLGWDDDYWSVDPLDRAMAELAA
Chain of native human plasma gelsolin (human) (P06396 28-782 limits assumed): as above

% of F-actin at 0.1 mg/ml gelsolin (F-actin severing assay) [1]	% of F-actin at 0.5 mg/ml gelsolin (F-actin severing assay) [1]	% of F-actin at 1.0 mg/ml gelsolin (F-actin severing assay) [1]	OD (sandwich ELISA pairing) [2]	OD (sandwich ELISA pairing) [3]	OD (sandwich ELISA pairing) [4]	Substance
35%	21%	12%	–	–	–	native human plasma gelsolin (from UniProt P06396 28-782)
–	–	–	0.025 OD	0.014 OD	0.013 OD	commercial anti-human gelsolin antibody GS2C4 (Sigma Chemical Co.)
